According to paper PMC4764579, “Structural insights into the mechanism of activation of the TRPV1 channel by a membrane-bound tarantula toxin” (eLife, 2016):

Key:
[1] = target: T1, rTRPV1 (Rattus norvegicus, UniProt O35433); test: Whole-cell patch clamp recordings of TRPV1 activation by toxins in transiently transfected HEK293 cells; type: cell-based
T1 construct: preserved in the full-length construct used for our functional studies; expressed in transfected cells; host or cells: HEK293
Source text: Figure 3. Validation of the proposed structural model of the TRPV1-DkTx complex. Close-up of K1 (A) and K2 (B) in the top-ranking ROSETTA model of DkTx bound to TRPV1. Side chains of TRPV1 residues where mutation disrupts DkTx-induced channel activation (I599, F649, A657 and F659) ([Bohlen et al., 2010]) are highlighted in purple. (C) Representative time courses of TRPV1 activation at +120 mV by either DkTx (left panel), K1K1 (middle panel) or K2K2 (right panel) measured from a train of voltage-ramps in the whole-cell configuration with the TRPV1 expressed in HEK cells. […] Fractional dissociation 1 min after toxin removal was quantified across cells as the current amplitude 1 min after toxin removal divided by the steady-state current amplitude in the presence of the toxin. […] Activation of the full-length TRPV1 channel by the toxin at different concentrations was measured in oocytes at a holding voltage of −60 mV. […]
Figure 7. […] Currents were measured every 3 s by applying voltage-ramps of 1 s duration from −120 to +140 mV starting at a holding potential of −90 mV. Currents were recorded under constant perfusion with control solution or with the test solutions containing either NMDG^+ instead of Na^+ as permeant ion (gray), or the K2 toxins together with 130 mM NaCl (black and blue), as indicated by the continuous horizontal lines. […]

[2] = Membrane partitioning of toxins into lipid vesicles measured using Trp fluorescence; type: physicochemical
Source text: Motivated by the amphipathic character evident in the structure of DkTx, together with the placement of the toxin at the protein-lipid interface when bound to TRPV1, we investigated the interaction of DkTx and each of its two lobes with lipid membranes. For these experiments, we took advantage of the presence of a single conserved and solvent accessible Trp residue in loop 2 of both K1 and K2 (Figure 1C,D; W11 and W53), and used Trp fluorescence to monitor the partitioning of the toxin from the aqueous solution into the membrane environment ([Gupta et al., 2015]; [Ladokhin et al., 2000]; [Milescu et al., 2007]). When aqueous solutions of DkTx were excited at a wavelength of 280 nm, emission spectra with maxima at 353 nm were obtained (Figure 5A, left), as expected for Trp residues residing in such an environment. […] To quantify the extent of partitioning as a function of lipid concentration, we measured the relative fluorescence intensity in a blue-shifted region of the spectra (e.g. 320 nm) as a function of lipid concentration, and fit a partition function to the data to obtain a mole-fraction partition coefficient (Kx) of (2.3 ± 0.7) × 10^6, indicating an energetically favorable interaction of DkTx with lipid membranes (Figure 5A, right). This strong interaction of DkTx with membranes would facilitate binding of the toxin to the channel by increasing the local concentration of the toxin near the channel and by a reduction in the dimensionality of diffusion within the membrane ([Axelrod and Wang, 1994]).
Figure 5. Interaction of DkTx and toxin constructs with lipid membranes measured using Trp fluorescence. […] (A–E, right panel) Relative fluorescence intensity at 320 nm (F/F0) as a function of available lipid concentrations (60% of total lipid concentration). […] Interaction of K1-K2 chimeras with lipid membranes measured using Trp fluorescence. […] (A–D, right panel) Relative fluorescence intensity at 320 nm (F/F0) as a function of available lipid concentrations (60% of total lipid concentration). […]

T1 sequence (O35433 whole entry): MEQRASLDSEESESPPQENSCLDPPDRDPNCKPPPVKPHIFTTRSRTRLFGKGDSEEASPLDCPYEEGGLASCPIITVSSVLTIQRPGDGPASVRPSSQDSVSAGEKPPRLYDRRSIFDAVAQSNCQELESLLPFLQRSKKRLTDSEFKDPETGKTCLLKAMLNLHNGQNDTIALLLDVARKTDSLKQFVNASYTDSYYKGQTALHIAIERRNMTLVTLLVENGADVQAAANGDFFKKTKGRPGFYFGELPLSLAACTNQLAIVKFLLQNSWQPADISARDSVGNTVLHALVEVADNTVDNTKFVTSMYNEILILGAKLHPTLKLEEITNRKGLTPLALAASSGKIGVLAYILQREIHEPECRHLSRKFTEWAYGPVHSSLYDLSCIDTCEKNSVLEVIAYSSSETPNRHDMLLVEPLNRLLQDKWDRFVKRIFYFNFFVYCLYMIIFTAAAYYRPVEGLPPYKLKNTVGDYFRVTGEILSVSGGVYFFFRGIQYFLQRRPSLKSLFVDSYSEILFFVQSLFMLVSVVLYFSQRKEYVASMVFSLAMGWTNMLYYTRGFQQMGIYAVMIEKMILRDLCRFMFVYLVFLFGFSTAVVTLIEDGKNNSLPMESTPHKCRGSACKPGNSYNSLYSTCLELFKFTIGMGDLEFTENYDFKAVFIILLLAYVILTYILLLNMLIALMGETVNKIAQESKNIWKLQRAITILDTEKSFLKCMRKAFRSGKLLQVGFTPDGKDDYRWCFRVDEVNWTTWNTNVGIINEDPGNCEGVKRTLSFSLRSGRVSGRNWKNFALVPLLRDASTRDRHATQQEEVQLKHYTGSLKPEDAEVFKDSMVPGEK

B1: double-knot toxin (protein)
chain: DCAKEGEVCSWGKKCCDLDNFYCPMEFIPHCKKYKPYVPVTTNCAKEGEVCGWGSKCCHGLDCPLAFIPYCEKYR
notes: produced recombinantly
- dissociation from TRPV1 after toxin removal (in words) ([1]; HEK cells): slow dissociation
- Fractional dissociation 1 min after toxin removal (current amplitude 1 min after toxin removal divided by steady-state current amplitude in presence of toxin) ([1]; TRPV1 in HEK cells, +120 mV from voltage ramps, 1 µM toxin, mean ± sem, n = 8 (DkTx), 5 (K1K1), 6 (K2K2), SEM): 0.8 ± 0.05
- F/F0^max (relative fluorescence intensity at 320 nm when partitioning is saturated) ([2]; Trp fluorescence, LUVs 1:1 POPC:POPG, 10 mM HEPES, 1 mM EDTA, pH 7.0, fit of partition function, ± SEM, n = 3 or 4, SEM): 2.65 ± 0.08
- mole-fraction partition coefficient (Kx) ([2]; Trp fluorescence, excitation 280 nm, F/F0 at 320 nm, LUVs 1:1 POPC:POPG extruded through 100 nm, toxin 2 or 5 µM in 10 mM HEPES, 1 mM EDTA, pH 7.0, available lipid 60% of total, fit of partition function, ± SEM, n = 3 or 4, SEM): (2.3 ± 0.7) × 10^6
- measured free energy of membrane partitioning (ΔG° = −RT lnKx) ([2]; from measured Kx, LUVs 1:1 POPC:POPG): -8.5 kcal/mol
